In paper doi:10.1101/774158:

Assays:
CDA-ZnF-KLF1 = CDA-ZnF-KLF1 (mouse, UniProt P46099 275-358, E321K); assay: EMSA
WT-ZnF-KLF1 = WT-ZnF-KLF1 (mouse, UniProt P46099 275-358); assay: EMSA
Chain of WT-ZnF-KLF1 (P46099 275-358): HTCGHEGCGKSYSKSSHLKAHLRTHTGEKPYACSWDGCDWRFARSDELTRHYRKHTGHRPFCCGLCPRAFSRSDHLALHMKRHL

Chain of CDA-ZnF-KLF1 (P46099 275-358 E321K): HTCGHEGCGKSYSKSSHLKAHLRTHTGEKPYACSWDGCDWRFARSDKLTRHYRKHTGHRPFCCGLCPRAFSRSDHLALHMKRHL

B1: 9xG (CDA-GGG) (dsDNA)
DNA 1: AGCTAAGGGGGGGGGCA
DNA 2: AGCTTGCCCCCCCCCTT
In the case of B1, the Kd (CDA-ZnF-KLF1) is reported as 0.696 ± 0.0711 µM and the Kd (WT-ZnF-KLF1) is reported as about 4.99 µM.
